The source of these data is patent US20030236190A1 (published 2003).

For assay [1], the target named is T1, Human insulin receptor (HIR), purified from transfected cells after solubilization with Triton X-100 (human, UniProt P06213 28-1382, limits assumed).
T1 construct: Detergent-solubilised receptor
Description: competition with 125I-insulin for solubilised HIR, PEG precipitation; Kd calculated from the competition curve.

Assay [2] concerns the target human IGF-1R on FDCP-2 cells (human, UniProt P08069 31-1367). As to the kind of experiment: cell-based or functional assay.
Assay [3] deals with T2, recombinant human IGF-1R (rhIGF-1R) (human, UniProt P08069 31-935).
T2 construct: extracellular domain; Coated on plates in the TRF assay and europium-labelled (LANCE) in the TR-FRET assays; also called rhIGE-1R; Eu3+-rhIGF-1R
Description: heterogeneous TRF (DELFIA) competition with b-rhIGF-1 for plate-coated rhIGF-1R. The protocol: (§1) The plates were incubated for 2 hr at RT.

Assay [4] concerns the target T2, recombinant human IGF-1R (rhIGF-1R). As to the kind of experiment: column 'nM Ki app Kd' of Table 15 (IGF-1R summary); values match the TRF competition with b-rhIGF-1 on rhIGF-1R of Table 20. The protocol:
as §1

Assay [5] concerns the target human insulin receptor (HIR) (human, UniProt P06213 28-1382, limits assumed). Description: Kd(HIR), insulin competition.
Assay [6] addresses T1, Human insulin receptor (HIR), purified …. As to the kind of experiment: competition with 125I-insulin for solubilised HIR, PEG precipitation; Kd calculated from the competition curve. This is another data set of the same source.
The target in assay [7] is T2, recombinant human IGF-1R (rhIGF-1R). As to the kind of experiment: TR-FRET competition with b-20E2 for rhIGF-1R. On the technique in general: Time-resolved FRET reads energy transfer from a long-lived donor to a nearby acceptor.
Assay [8] shares this target. Description: TR-FRET competition with b-20E2 for Eu3+-rhIGF-1R.
Assay [9] concerns the target T3, soluble human insulin receptor-immunoglobulin heavy chain chimera (sIR-Fc) (human, UniProt P06213 28-956, limits assumed).
T3 construct: extracellular domain; also called sIR-Ec; not shown: immunoglobulin heavy chain constant domains
Description: fluorescence polarization competition with FITC-RP9 for sIR-Fc. (In general: In fluorescence polarisation assays a small probe gives low polarisation when free and higher when bound to something large.)

Assay [10] concerns the target T2, recombinant human IGF-1R (rhIGF-1R). As to the kind of experiment: ratio of the IC50 at rhIGF-1R (TR-FRET) to the IC50 at sIR-Fc (FP); higher values indicate higher affinity for IR than IGF-1R.

Read-outs that look alike come from different tables or passages of the source. Positions of bridges follow the written chain, without caps; N, C: chain ends. No end group written: not given here. Some results are limits rather than exact numbers.

One may read the Kd as the free concentration of one partner at which half of the binding sites on the other are occupied at equilibrium, for simple one-to-one binding. In general, IC50 refers to the concentration that inhibits the measured activity by half.

B1: S386 (peptide)
peptide: GSLDESFYDWFERQLG
notes: also called RP9 minus terminal lysines
In the case of B1, the Kd in [1] was 320 nM.

B2: D815-6aa-G33 (peptide)
peptide: WLDQERAWLWCEISGRGCLSGGSGGSGIISQSCPESFYDWFAGQVSDPWWCW
notes: Site 2-Site 1 dimer peptide, recombinant; also called D815-G33 (6 aa linker); D815-6-G33
As for B2, in [2], the “Max Action” value is below 10%. In addition, in assay [3], the half-maximal inhibitory concentration (IC50) amounted to 624 nM. In assay [4], the Ki was determined as 624 nM.

B3: 436 (other, not shown: large carriers; small tags and cut ends)
chain: NNNNLGIEGRISEFIEGRAQPAMAFHENFYDWFVRQVSGGSGGSGGSFHENFYDWFVRQVSAAAGAPVPYPDPLEPRAA
notes: MBP fusion
B3 registered a Kd in assay [5] of 410 nM.

B4: recombinant peptide surrogate D815 (rD815) (peptide)
peptide: WLDQERAWLWCEISGRGCLS
modifications: disulfide 11-18 (inferred)
notes: Recombinant form
For the molecule B4, in [2], the “ED50 Growth” value worked out at 500 nM and the “Max Action” value was above 50%. For the same molecule, in assay [3], the IC50 worked out at 4080 nM. Further, the Ki in [4] worked out at 4080 nM.

B5: 435 (other, not shown: large carriers; small tags and cut ends)
chain: NNNNLGIEGRISEFIEGRAQPAMAFHENFYDWFVRQVSGGSFHENFYDWFVRQVSGGSFHENFYDWFVRQVSAAAGAPVPYPDPLEPRAA
notes: MBP fusion
The molecule B5 showed a Kd in assay [5] of 2000 nM.

B6: S415 (peptide)
chain: ESFYDWFERQLGK
modifications: not fully specified (residue 13, C-terminus); also: dimer, two chains joined C-terminus to C-terminus through linker 23
Regarding B6, the Kd in assay [6] is 100 nM.

B7: S395 (peptide)
peptide: GSLDESFYDWFERQL
notes: Synthetic truncated RP9 monomer peptide
On to B7, for which the Kd in [1] and in assay [6] was 91 nM in each case.

B8: 464 (other, not shown: large carriers; small tags and cut ends)
chain: NNNNLGIEGRISEFIEGRDYKDDDDKFHENFYDWFVRQVSAAGAPVPYPDPLEPRAA
notes: MBP fusion
Consider B8, for which the Kd in [5] is 39 nM.

B9: D815-6aa-RP9 (peptide)
peptide: WLDQERAWLWCEISGRGCLSGGSGGSGSLDESFYDWFERQLGKK
notes: Site 2-Site 1 dimer peptide, recombinant; also called D815-RP9 (6 aa linker); D815-6-RP9
With B9, in assay [2], the “ED50 Growth” value turned out to be 50 nM, the “IC50 Antag.” value was above 500 nM, the Ki/ED50 came out at 0.8 and the “Max Action” value was above 50%. In addition, in assay [3], the IC50 was 35.7 nM. The Ki in assay [4] was 36 nM.

B10: D815-12aa-RP9 (peptide)
peptide: WLDQERAWLWCEISGRGCLSGGSGGSGGSGGSGSLDESFYDWFERQLGKK
modifications: not fully specified (bridges); cysteine pairing not given here
notes: Site 2-Site 1 dimer peptide, recombinant; also called D815-RP9 (12 aa linker); D815-12-RP9
Consider B10, for which, in assay [2], the “ED50 Growth” value was 10000 nM, the Ki/ED50 was determined as 0.0003 and the “Max Action” value is 100. Moreover, the IC50 in assay [3] was 3.22 nM. The Ki in assay [4] was 3 nM.

B11: 463 (other, not shown: large carriers; small tags and cut ends)
chain: NNNNLGIEGRISEFIEGRAQPAMAFHENFYDWFVRQVSGGSFHENFYDWFVRQVSAAAGAPVPYPDPLEPRAA
notes: MBP fusion
On to B11, for which the Kd in [5] is 960 nM.

B12: RP9 (peptide)
peptide: GSLDESFYDWFERQLG
notes: as for B1
As to B12, in [2], the “IC50 Antag.” value amounted to 900 nM. Moreover, the Ki/ED50 in assay [2] amounted to 0.5. The “Max Action” value in [2] was below 10%. Further, the IC50 in assay [7] worked out at 33 nM; in [8], 39.3 nM; in assay [9], 24 nM; in assay [3], 417 nM. In addition, the Ki in [4] came out at 417 nM. Moreover, the “Binding Ratio IGF-1R/IR” value in assay [10] was determined as 1.4.

B13: recombinant peptide surrogate G33 (rG33) (peptide)
peptide: GIISQSCPESFYDWFAGQVSDPWWCW
notes: Recombinant form
Take B13: in [2], the “ED50 Growth” value is 500 nM, the Ki/ED50 came out at 2.9 and the “Max Action” value was above 50. Besides, in assay [3], the IC50 stood at 1450 nM. Besides, the Ki in assay [4] came to 1450 nM.

B14: 437 (other, not shown: large carriers; small tags and cut ends)
chain: NNNNLGIEGRISEFIEGRAQPAMAFHENFYDWFVRQVSAAAGAPVPYPDPLEPRAA
notes: MBP fusion
As for B14, the Kd in [5] was determined as 8300 nM.
